Measurements taken from patent publication US20200283521A1 (GRANULAR THERAPEUTICS, published 2020).

How the values were obtained:
Experiment in all cases: direct ELISA on coated protein, IgG1
h4-1BB-Fc = biological target: T1, h4-1BB-Fc
T1 construct: member of the panel m9

hICAM-1-Fc = biological target: T2, hICAM-1-Fc (human, UniProt P05362)
T2 construct: Fc fusion; member of the panel m9

hCMET-Fc = biological target: T3, hCMET-Fc (The natural ectodomain is cleaved by furin after residue 307 into disulfide-linked alpha and beta chains. It is given here as one continuous stretch.)
T3 construct: member of the panel m9
T3 chain: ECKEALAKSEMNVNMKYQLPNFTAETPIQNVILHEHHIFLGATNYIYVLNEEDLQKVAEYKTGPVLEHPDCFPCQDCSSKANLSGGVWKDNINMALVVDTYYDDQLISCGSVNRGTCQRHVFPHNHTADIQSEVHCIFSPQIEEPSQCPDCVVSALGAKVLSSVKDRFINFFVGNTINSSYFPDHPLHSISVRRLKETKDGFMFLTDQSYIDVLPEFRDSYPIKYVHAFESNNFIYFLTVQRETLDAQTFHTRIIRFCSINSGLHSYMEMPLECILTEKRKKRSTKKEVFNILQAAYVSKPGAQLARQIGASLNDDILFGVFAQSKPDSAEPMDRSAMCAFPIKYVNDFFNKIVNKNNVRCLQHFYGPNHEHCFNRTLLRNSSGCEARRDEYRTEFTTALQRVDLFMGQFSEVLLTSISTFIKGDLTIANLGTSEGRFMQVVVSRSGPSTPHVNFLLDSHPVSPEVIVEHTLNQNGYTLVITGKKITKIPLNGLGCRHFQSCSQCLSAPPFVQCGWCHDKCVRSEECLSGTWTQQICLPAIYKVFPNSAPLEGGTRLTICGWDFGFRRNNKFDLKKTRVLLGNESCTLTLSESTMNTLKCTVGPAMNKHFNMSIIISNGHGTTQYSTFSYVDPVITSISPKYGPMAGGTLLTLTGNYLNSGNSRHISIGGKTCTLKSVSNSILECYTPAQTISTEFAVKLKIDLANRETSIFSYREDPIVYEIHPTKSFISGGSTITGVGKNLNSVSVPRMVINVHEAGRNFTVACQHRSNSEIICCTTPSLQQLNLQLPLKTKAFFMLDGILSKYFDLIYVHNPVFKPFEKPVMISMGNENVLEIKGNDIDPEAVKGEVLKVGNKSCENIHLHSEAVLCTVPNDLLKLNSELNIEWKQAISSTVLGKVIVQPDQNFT

hDR6-Fc = biological target: T4, hDR6-Fc (human, UniProt O75509)
T4 construct: Fc fusion; member of the panel m9
T4 sequence (looked up): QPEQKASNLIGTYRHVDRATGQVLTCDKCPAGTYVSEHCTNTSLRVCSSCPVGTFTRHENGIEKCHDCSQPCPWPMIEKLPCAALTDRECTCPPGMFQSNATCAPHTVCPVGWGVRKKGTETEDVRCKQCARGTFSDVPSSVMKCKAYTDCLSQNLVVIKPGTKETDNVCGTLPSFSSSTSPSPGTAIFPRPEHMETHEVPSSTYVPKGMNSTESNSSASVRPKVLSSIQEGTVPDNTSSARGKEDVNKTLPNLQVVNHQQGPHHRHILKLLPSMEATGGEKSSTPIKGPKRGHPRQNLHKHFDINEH

hVCAM-1 = biological target: T5, hVCAM-1 (human, UniProt P19320)
T5 construct: purified recombinant protein; member of the panel m9
T5 sequence (looked up): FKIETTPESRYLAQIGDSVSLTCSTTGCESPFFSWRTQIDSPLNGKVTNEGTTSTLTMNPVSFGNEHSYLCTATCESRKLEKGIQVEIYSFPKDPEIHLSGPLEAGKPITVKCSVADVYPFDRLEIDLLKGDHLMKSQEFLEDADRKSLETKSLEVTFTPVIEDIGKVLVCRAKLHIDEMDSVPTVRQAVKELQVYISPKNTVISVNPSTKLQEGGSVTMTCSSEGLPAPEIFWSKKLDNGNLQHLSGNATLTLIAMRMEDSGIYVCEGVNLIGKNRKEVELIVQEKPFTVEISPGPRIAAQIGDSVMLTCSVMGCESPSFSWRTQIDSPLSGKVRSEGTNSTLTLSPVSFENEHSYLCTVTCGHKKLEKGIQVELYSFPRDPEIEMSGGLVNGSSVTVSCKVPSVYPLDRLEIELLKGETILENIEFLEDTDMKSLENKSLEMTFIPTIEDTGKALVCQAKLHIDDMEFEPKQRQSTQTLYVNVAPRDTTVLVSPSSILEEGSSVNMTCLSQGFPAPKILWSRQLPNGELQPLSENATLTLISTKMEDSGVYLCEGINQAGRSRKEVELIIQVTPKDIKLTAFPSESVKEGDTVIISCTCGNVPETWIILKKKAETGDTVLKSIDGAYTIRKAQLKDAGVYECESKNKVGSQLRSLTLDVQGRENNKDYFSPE

hTWEAK-Fc = biological target: T6, hTWEAK-Fc (human, UniProt O43508)
T6 construct: Fc fusion; member of the panel m9
T6 sequence (looked up): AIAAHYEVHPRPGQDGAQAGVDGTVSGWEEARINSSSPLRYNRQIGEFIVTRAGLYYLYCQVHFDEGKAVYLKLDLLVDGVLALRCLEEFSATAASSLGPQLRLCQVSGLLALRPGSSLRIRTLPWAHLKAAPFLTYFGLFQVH

hEpCAM-Fc = biological target: T7, hEpCAM-Fc (human, UniProt P16422)
T7 construct: Fc fusion; member of the panel m9
T7 sequence (looked up): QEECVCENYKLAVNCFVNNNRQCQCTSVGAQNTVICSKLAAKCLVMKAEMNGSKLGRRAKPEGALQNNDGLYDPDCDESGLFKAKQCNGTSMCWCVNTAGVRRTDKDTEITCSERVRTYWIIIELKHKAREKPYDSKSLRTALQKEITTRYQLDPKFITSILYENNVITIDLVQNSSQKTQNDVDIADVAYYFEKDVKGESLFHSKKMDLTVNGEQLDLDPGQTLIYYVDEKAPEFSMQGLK

hOX40-Fc = biological target: T8, hOX40-Fc
T8 construct: member of the panel m9
T8 chain: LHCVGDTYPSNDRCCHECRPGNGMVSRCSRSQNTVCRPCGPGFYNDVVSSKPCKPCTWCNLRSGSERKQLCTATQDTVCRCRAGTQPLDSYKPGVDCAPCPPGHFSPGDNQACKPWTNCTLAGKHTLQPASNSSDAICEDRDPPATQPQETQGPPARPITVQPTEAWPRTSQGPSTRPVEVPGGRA

hLTBR-Fc = biological target: T9, hLTBR-Fc (human, UniProt P36941)
T9 construct: Fc fusion; member of the panel m9

Measured: binding result

T9 sequence (P36941 28-227 limits assumed): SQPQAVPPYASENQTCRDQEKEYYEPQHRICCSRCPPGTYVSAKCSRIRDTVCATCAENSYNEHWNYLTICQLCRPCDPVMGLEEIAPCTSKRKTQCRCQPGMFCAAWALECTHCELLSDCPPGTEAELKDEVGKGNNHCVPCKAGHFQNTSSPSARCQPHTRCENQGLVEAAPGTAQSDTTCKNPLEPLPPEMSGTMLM
T2 sequence (P05362 28-480 limits assumed): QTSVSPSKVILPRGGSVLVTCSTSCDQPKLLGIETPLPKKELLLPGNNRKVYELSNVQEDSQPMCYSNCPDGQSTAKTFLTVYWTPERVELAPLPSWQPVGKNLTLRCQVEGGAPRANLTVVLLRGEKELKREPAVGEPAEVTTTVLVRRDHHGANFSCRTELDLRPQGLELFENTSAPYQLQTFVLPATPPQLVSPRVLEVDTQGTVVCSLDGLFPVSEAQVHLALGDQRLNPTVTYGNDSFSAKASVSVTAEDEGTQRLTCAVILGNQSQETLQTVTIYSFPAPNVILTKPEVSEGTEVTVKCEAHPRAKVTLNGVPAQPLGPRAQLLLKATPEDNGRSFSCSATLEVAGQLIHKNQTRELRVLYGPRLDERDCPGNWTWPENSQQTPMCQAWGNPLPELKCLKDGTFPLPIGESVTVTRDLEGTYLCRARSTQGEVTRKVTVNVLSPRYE
T1 sequence (chain, as listed by the source limits assumed): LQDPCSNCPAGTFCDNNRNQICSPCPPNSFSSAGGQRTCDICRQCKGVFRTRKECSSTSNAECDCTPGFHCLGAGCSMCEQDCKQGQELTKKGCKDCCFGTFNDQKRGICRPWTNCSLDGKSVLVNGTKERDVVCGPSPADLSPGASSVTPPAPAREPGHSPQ

B1: MH5, human IgG1 (antibody, V domains shown)
VH: QVQLVQSGAEVKKPGASVKVSCKASGYTFTDYYMNWVRQAPGQGLEWMGRIYPGSGNTYYAQKFQGRVTMTRDTSTSTVYMELSSLRSEDTAVYYCARGVYYYDYWGQGTLVTVSS
VL: DIQMTQSPSSLSASVGDRVTITCRASQGIRTNLAWFQQKPGKAPKSLIYSASSLQSGVPSRFSGSGSGTDFTLTISSLQPEDFATYYCQQYANYPRTFGGGTKVEIK
notes: IgG1; also called C-KIT-MH5; C-KIT-MHS
no binding (tested: 1 µg/ml): all assays above
